Results from paper PMC6877725, “Identification of the periplasmic DNA receptor for natural transformation of Helicobacter pylori”.

Legend:
[1] = biological target: T1, ComH-His6 (Helicobacter pylori 26695, UniProt O26055 20-479); assay: MST; settings: 10 mM MgCl2, 150 mM NaCl; EMSA: 10 mM Tris-HCl pH 7.5, 50 mM KCl, ~100 mM NaCl, 0.1 mM MgCl2, 1 mM DTT, 0.1 µg/µl BSA, on ice 30 min; MST and SV-AUC (20 °C): 50 mM Tris-HCl pH 7.4 …
T1 sequence: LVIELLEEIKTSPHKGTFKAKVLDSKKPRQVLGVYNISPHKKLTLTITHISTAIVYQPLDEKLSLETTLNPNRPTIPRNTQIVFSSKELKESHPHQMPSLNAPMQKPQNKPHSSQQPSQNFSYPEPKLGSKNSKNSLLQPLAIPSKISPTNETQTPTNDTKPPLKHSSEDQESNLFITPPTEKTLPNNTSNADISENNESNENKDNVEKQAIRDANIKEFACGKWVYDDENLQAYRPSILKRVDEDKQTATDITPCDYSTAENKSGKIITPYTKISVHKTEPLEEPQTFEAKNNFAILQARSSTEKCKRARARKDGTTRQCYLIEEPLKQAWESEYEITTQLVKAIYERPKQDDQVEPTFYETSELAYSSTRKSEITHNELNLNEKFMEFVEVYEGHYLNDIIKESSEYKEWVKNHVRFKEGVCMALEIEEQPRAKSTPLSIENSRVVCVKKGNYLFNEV

[2] = biological target: T2, ComH-NTD-His6 (Helicobacter pylori 26695, UniProt O26055 20-169); assay: MST; settings: 10 mM MgCl2, 150 mM NaCl; EMSA: 10 mM Tris-HCl pH 7.5, 50 mM KCl, ~100 mM NaCl, 0.1 mM MgCl2, 1 mM DTT, 0.1 µg/µl BSA, on ice 30 min; MST and SV-AUC (20 °C): 50 mM Tris-HCl pH 7.4 …
T2 sequence: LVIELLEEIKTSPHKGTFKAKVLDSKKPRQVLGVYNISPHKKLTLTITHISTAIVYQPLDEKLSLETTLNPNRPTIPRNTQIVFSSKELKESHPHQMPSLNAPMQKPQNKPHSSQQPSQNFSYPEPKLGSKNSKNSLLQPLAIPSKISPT

[3] = biological target: T3, ComH-CTD-His6 (Helicobacter pylori 26695, UniProt O26055 170-479); assay: MST; settings: 10 mM MgCl2, 150 mM NaCl; EMSA: 10 mM Tris-HCl pH 7.5, 50 mM KCl, ~100 mM NaCl, 0.1 mM MgCl2, 1 mM DTT, 0.1 µg/µl BSA, on ice 30 min; MST and SV-AUC (20 °C): 50 mM Tris-HCl pH 7.4 …
T3 sequence: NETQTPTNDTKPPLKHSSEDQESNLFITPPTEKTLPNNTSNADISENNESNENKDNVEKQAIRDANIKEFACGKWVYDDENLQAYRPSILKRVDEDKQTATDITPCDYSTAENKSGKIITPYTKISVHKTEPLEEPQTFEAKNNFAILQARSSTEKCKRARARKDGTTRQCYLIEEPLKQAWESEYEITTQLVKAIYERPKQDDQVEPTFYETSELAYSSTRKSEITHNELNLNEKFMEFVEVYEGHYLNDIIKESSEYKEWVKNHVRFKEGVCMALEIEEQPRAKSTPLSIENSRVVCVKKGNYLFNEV

[4] = biological target: T1, ComH-His6; assay: SV-AUC; settings: EMSA: 10 mM Tris-HCl pH 7.5, 50 mM KCl, ~100 mM NaCl, 0.1 mM MgCl2, 1 mM DTT, 0.1 µg/µl BSA, on ice 30 min; MST and SV-AUC (20 °C): 50 mM Tris-HCl pH 7.4 …
[5] = biological target: T1, ComH-His6; assay: SV-AUC; settings: EMSA: 10 mM Tris-HCl pH 7.5, 50 mM KCl, ~100 mM NaCl, 0.1 mM MgCl2, 1 mM DTT, 0.1 µg/µl BSA, on ice 30 min; MST and SV-AUC (20 °C): 50 mM Tris-HCl pH 7.4 …; remark: listed apart in the source
[6] = biological target: T1, ComH-His6; assay: EMSA; 0.5-2 µM protein; EMSA: 10 mM Tris-HCl pH 7.5, 50 mM KCl, ~100 mM NaCl, 0.1 mM MgCl2, 1 mM DTT, 0.1 µg/µl BSA, on ice 30 min; MST and SV-AUC (20 °C): 50 mM Tris-HCl pH 7.4, 150 mM NaCl, 10 mM MgCl2, 0.05% Tween20; SPR: PBS + 0.005% Tween20, 25 °C; settings: protein: recombinant, tags: C-terminal His6
[7] = biological target: T3, ComH-CTD-His6; assay: as above; settings: protein: recombinant; tags: C-terminal His6; label: 5'-Cy5 on strand 1; blunt
[8] = biological target: T2, ComH-NTD-His6; assay: EMSA; basically no binding, 0.5-2 µM protein; EMSA: 10 mM Tris-HCl pH 7.5, 50 mM KCl, ~100 mM NaCl, 0.1 mM MgCl2, 1 mM DTT, 0.1 µg/µl BSA, on ice 30 min; MST and SV-AUC (20 °C): 50 mM Tris-HCl pH 7.4, 150 mM NaCl, 10 mM MgCl2, 0.05% Tween20; SPR: PBS + 0.005% Tween20, 25 °C; settings: protein: recombinant, tags: C-terminal His6
[9] = biological target: T3, ComH-CTD-His6; assay: EMSA; essentially no affinity, 0.5-2 µM protein; EMSA: 10 mM Tris-HCl pH 7.5, 50 mM KCl, ~100 mM NaCl, 0.1 mM MgCl2, 1 mM DTT, 0.1 µg/µl BSA, on ice 30 min; MST and SV-AUC (20 °C): 50 mM Tris-HCl pH 7.4, 150 mM NaCl, 10 mM MgCl2, 0.05% Tween20; SPR: PBS + 0.005% Tween20, 25 °C; settings: protein: recombinant; tags: C-terminal His6; label: 5'-Cy5
[10] = biological target: T1, ComH-His6; assay: SPR; no satisfactory fit; EMSA: 10 mM Tris-HCl pH 7.5, 50 mM KCl, ~100 mM NaCl, 0.1 mM MgCl2, 1 mM DTT, 0.1 µg/µl BSA, on ice 30 min; MST and SV-AUC (20 °C): 50 mM Tris-HCl pH 7.4, 150 mM NaCl, 10 mM MgCl2, 0.05% Tween20; SPR: PBS + 0.005% Tween20, 25 °C; settings: protein: recombinant; tags: C-terminal His6; label: 5'-biotin on strand 1; blunt
[11] = label: 5'-Cy5 on strand 1, blunt

## 18 bp dsDNA-FAM
[1]
  Kd: 50 nM
[2]
  Kd: > 40000 nM
[3]
  Kd: 3400 nM
[4]
  Kd: 300 nM
[5]
  Kd: 100 nM

B1: 18 bp dsDNA (Cy5-PNK1 + cPNK1) (dsDNA)
DNA 1: TAGCATCGATCAGTCCTC
DNA 2: GAGGACTGATCGATGCTA
[6]; [11]
  binding result: binds
[7]
  binding result: binds
[8]; [11]
  binding result: no binding

## TAGCATCGATCAGTCCTC (ssDNA) [18-mer ssDNA (Cy5-PNK1)]
[6]; label: 5'-Cy5
  binding result: no binding
[8]; label: 5'-Cy5
  binding result: no binding
[9]
  binding result: no binding

B2: 50 bp dsDNA (Op249 + Op250) (dsDNA)
DNA 1: GTAGTGCTGTAGGAGAATATACGGGCTGCTCGTGTTGACAAGTACTGATG
DNA 2: CATCAGTACTTGTCAACACGAGCAGCCCGTATATTCTCCTACAGCACTAC
[10]
  binding result: binds
